From the RNAGym collection of RNA variant scans (doi:10.7554/elife.90254)

B1: LINE1-mini (parent)
chain: GGCAGAGCUCAACACAGCGUGGCAAAGUGGCUGUGGCUAGACUGCC

Variants of: B1
Assay: self-cleavage, relative activity (ratio to wild type); higher = more cleavage; in vitro, sequencing; the parent is a self-cleaving ribozyme
In the case of GGCAGAGCUCAACACAGCCUGGCAAAGUUGCUGUGGCUAGACUGCC [G19C G29U], the self-cleavage is reported as 0.54.
GGCAGAGCUCAACACAGCGUGGCAAUGUGGCUGUGGCUCGACUGCC [A26U A39C] showed a self-cleavage of 0.25.
For GGCAGAGCUCAACACAGCUUGGCAAAGCGGCUGUGGCUAGACUGCC [G19U U28C], the self-cleavage was 0.67.
GGCAGAGCUCAACACAGCGUGGCAAAGGCGCUGUGGCUAGACUGCC [U28G G29C] showed a self-cleavage of 0.53.
For GGCAGAGCUAAACACAGCGUGCCAAAGUGGCUGUGGCUAGACUGCC [C10A G22C], the self-cleavage was 0.03.
CGCAGAGCUCAACACAGCGUGGCAAAGUGGCUGUUGCUAGACUGCC [G1C G35U] gave a self-cleavage of 0.03.
With GGCAGAGCCCAACACAGCGUGGCACAGUGGCUGUGGCUAGACUGCC [U9C A25C] the self-cleavage was 0.03.
GGCAGUGCUCAACACAGCGUGGCAAAGUGGGUGUGGCUAGACUGCC [A6U C31G] showed a self-cleavage of 0.13.
Variant GCCAGAGCUCAACACAGCGUGGCAAAGUGGCCGUGGCUAGACUGCC [G2C U32C] has a self-cleavage of 0.08.
With GUCAGAGCUCAUCACAGCGUGGCAAAGUGGCUGUGGCUAGACUGCC [G2U A12U] the self-cleavage was 0.04.
For GGCAGAGCUCAACACAACGUGGCAAAGUGGCUGUGUCUAGACUGCC [G17A G36U], the self-cleavage was 0.05.
Variant GGCAGAGCUCAACACAGGGUGGCAAAGUGGCUGUGGCUACACUGCC [C18G G40C] has a self-cleavage of 0.05.
For GGCAGAGCUCAACACAGCGUGGCAAAGUGGCUAUGUCUAGACUGCC [G33A G36U], the self-cleavage was 0.09.
GCCAGAGCUCAACACAGCGUCGCAAAGUGGCUGUGGCUAGACUGCC [G2C G21C] gave a self-cleavage of 0.25.
GGCAGAGCGCAACACAGCGUGGCAUAGUGGCUGUGGCUAGACUGCC [U9G A25U] gave a self-cleavage of 0.14.
In the case of GGCAGAGCUCAACACAGCGUGGCAAAGUGGAUGCGGCUAGACUGCC [C31A U34C], the self-cleavage is reported as 0.06.
GGCAGAGGUCAACACAGCGUGGCUAAGUGGCUGUGGCUAGACUGCC [C8G A24U] gave a self-cleavage of 0.3.
GGCAGAGCUCAACACACCGUGGCAAAGUGGCUGUGGCUAGACUGUC [G17C C45U] gave a self-cleavage of 0.84.
With GGCAGAGCUCAACACAGCGUGGCAAACUGGCUGUGGCAAGACUGCC [G27C U38A] the self-cleavage was 0.34.
GGCAGAGCUCAACACAGCGAGGCAAAGUGGCUGUGGCUAAACUGCC [U20A G40A] showed a self-cleavage of 0.1.
Work on GGCAGAGCUCAACAAAGCGUGGCAAAGUGGCUGUGGCUAGACAGCC [C15A U43A] yielded a self-cleavage of 0.07.
For GGCAGCGCUCAACACAGCGUGGCAAAGUUGCUGUGGCUAGACUGCC [A6C G29U], the self-cleavage was 0.61.
Variant GGCAGAGCCCAACACAGCGUGGAAAAGUGGCUGUGGCUAGACUGCC [U9C C23A] has a self-cleavage of 0.02.
With GGCAGAGCUCAACACAGCGUGGCGAAGUGGCUGUGGCAAGACUGCC [A24G U38A] the self-cleavage was 0.76.
Variant GGCAGAGCUCAACACAGAUUGGCAAAGUGGCUGUGGCUAGACUGCC [C18A G19U] has a self-cleavage of 0.31.
For GGCAGAGAUCAACACAGCGUGGCAAAGUGGCUGUGGCUCGACUGCC [C8A A39C], the self-cleavage was 0.32.
Variant GGUAGAGCUCAACACAGCGUGGCAAAGUGGCUGUGGCAAGACUGCC [C3U U38A] has a self-cleavage of 0.19.
With GGCAGAGCUCAGCACAGCCUGGCAAAGUGGCUGUGGCUAGACUGCC [A12G G19C] the self-cleavage was 0.02.
GGCAGAGCCCAACACAGCAUGGCAAAGUGGCUGUGGCUAGACUGCC [U9C G19A] showed a self-cleavage of 0.04.
For GGCAGAGCUCAACACAGCAUGACAAAGUGGCUGUGGCUAGACUGCC [G19A G22A], the self-cleavage was 0.62.
With GGCAGAGCUCAUCACAGCGUGGCAAAGUGGCUGUAGCUAGACUGCC [A12U G35A] the self-cleavage was 0.19.
GGCAGAGCUCAACACAGCGUGGCCAAGUGGGUGUGGCUAGACUGCC [A24C C31G] gave a self-cleavage of 0.03.
For GGCAGAGCUCAACACAGCGUGGCCAACUGGCUGUGGCUAGACUGCC [A24C G27C], the self-cleavage was 0.77.
For UGCAGAGCUCAACACAGCGUGGCAAAGUGGAUGUGGCUAGACUGCC [G1U C31A], the self-cleavage was 0.07.
Work on GGCAGAGCUCAACAGAGCGUGGCAAAGUGGCUGUGGCAAGACUGCC [C15G U38A] yielded a self-cleavage of 0.03.
In the case of GGCAGAGCUCAACACCGCGUGGCAAAGUGGCUGUGGCUAGGCUGCC [A16C A41G], the self-cleavage is reported as 0.02.
Variant GGCGGAGCUCAACACAGCGUGGCAAAGUGUCUGUGGCUAGACUGCC [A4G G30U] has a self-cleavage of 0.45.
GGCAUAGCUCAACACAGCGUGGCAUAGUGGCUGUGGCUAGACUGCC [G5U A25U] showed a self-cleavage of 0.08.
In the case of GGCGGAGCUCAACACAGCGUGGCAUAGUGGCUGUGGCUAGACUGCC [A4G A25U], the self-cleavage is reported as 0.62.
Work on GGCAGAGCUCAACACAGCGUGGCAAAGUGGCUGUGGCUAGACUCGC [G44C C45G] yielded a self-cleavage of 0.21.
GGCAGAGCUCAACACAGCGUGGCAAAGUGGCUGUGGCUAGACUUCU [G44U C46U] showed a self-cleavage of 0.12.
GGCAGAGCUCCACACAGCGUGGCAAAGUGGCUGUGGCUAGACUGAC [A11C C45A] gave a self-cleavage of 0.05.
GGCAGAGCUCAACACAGCGUGGCAAAGUGGCUGGGACUAGACUGCC [U34G G36A] gave a self-cleavage of 0.07.
Work on GCCAGAGCUCAACAUAGCGUGGCAAAGUGGCUGUGGCUAGACUGCC [G2C C15U] yielded a self-cleavage of 0.11.
In the case of GGCAGAGCUCAACACAGCAUGGCAAAGUGGCUGUGGCUAGGCUGCC [G19A A41G], the self-cleavage is reported as 0.29.
For GGCAGAGCUCAACACAGCGUAGCAAAGUGGCUGUGGCUAGCCUGCC [G21A A41C], the self-cleavage was 0.12.
In the case of GGCAGAGCUCAACACAGCGUGGCAAAGUGGCUGUGGCUAGAACGCC [C42A U43C], the self-cleavage is reported as 0.09.
With GGCAGAGCUCAACACAGCGUGGCAAAGUGGCUGUGGCUAUACUGCU [G40U C46U] the self-cleavage was 0.11.
Variant GGCAGAGCUCAACACAGCGUGGCAAAGUGGCUGAGGCUAGAUUGCC [U34A C42U] has a self-cleavage of 0.05.
Variant GGCAGAGCUCAACACAGCGUGGCAAAGUGGCUGUGGCGAGACAGCC [U38G U43A] has a self-cleavage of 0.02.
Work on GGCAGCGCUCAACACAGCGUGGCAAAGUGGCUGUGGCUAGAAUGCC [A6C C42A] yielded a self-cleavage of 0.11.
With GACAGAGCUCCACACAGCGUGGCAAAGUGGCUGUGGCUAGACUGCC [G2A A11C] the self-cleavage was 0.05.
In the case of GGCAGAGCUCAACACAGCGUGGCAAAGUGGAUGUGGGUAGACUGCC [C31A C37G], the self-cleavage is reported as 0.07.
In the case of GGCAGACCUCAACACAGCUUGGCAAAGUGGCUGUGGCUAGACUGCC [G7C G19U], the self-cleavage is reported as 0.07.
Work on GCCAGAGCUCAACUCAGCGUGGCAAAGUGGCUGUGGCUAGACUGCC [G2C A14U] yielded a self-cleavage of 0.08.
With GCCAGAGCUCAACGCAGCGUGGCAAAGUGGCUGUGGCUAGACUGCC [G2C A14G] the self-cleavage was 0.03.
